Experimental data reported in patent US20240010684A1 (Bayer, published 2024).
*1 amine or outer side, *2 acyl side, *3 side chain or, on linkers, in order; H or OH if unused. Bridges are numbered along the chain shown (N, C = ends). Where no end group is shown, it is not given here. [ ]: non-standard residue; d: D form. Oic = O=C(O)[C@@H]1C[C@@H]2CCCC[C@@H]2N1; Adipoyl = O=C(CCCCC(=O)[*:2])[*:1]; Trx = NC[C@H]1CC[C@H](C(=O)O)CC1; tBuAla = CC(C)(C)C[C@H](N)C(=O)O; Pen = CC(C)(S)[C@H](N)C(=O)O; 4Amb = NCc1ccc(C(=O)O)cc1; NMeC = CN[C@@H](CS)C(=O)O; Orn = NCCC[C@H](N)C(=O)O; Dab = NCC[C@H](N)C(=O)O; Abu = CC[C@H](N)C(=O)O; Dap = NC[C@H](N)C(=O)O; Ahx = NCCCCCC(=O)O; GABA = NCCCC(=O)O; Sar = CNCC(=O)O

T1: recombinant rat MASP1 (amino acids 302-704, C-terminal His Tag) (rat, UniProt Q8CHN8 302-704)
T1 sequence: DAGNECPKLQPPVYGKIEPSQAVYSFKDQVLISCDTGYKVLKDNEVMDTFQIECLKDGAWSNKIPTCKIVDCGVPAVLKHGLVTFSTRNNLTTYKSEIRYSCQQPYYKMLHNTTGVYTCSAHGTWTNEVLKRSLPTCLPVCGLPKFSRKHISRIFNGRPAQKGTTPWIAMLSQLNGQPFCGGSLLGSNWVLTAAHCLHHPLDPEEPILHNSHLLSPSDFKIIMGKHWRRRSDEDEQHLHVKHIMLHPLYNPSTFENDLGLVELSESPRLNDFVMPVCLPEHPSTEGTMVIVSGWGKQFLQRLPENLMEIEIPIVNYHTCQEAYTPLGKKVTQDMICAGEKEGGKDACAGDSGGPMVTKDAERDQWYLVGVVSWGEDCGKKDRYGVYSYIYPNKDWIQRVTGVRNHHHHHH

T2: recombinant human MASP1 (amino acids 297-699, C-terminal His Tag) (human, UniProt P48740 297-699)
T2 sequence: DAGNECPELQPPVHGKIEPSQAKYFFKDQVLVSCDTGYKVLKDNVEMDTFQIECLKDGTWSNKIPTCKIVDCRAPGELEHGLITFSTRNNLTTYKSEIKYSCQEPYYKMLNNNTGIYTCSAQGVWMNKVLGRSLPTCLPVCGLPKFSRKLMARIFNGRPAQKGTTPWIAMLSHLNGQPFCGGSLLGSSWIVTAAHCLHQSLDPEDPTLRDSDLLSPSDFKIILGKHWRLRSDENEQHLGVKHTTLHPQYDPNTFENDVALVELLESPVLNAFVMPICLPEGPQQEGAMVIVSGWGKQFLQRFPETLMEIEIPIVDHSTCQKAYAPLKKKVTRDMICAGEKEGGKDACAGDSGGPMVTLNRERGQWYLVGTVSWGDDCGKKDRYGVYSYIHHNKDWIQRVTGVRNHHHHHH

B1: Example 59: (Ahx)**-(TXA)-IC+SRS-((tBu)A)-PPI-(Pen)+-IP** (peptide)
peptide: cyclo([Ahx][Trx]ICSRS[tBuAla]PPI[Pen]IP)
modifications: disulfide 4-12; also: TFA salt
B2: Example 60: (Adipic acid)**-IC+SRS-((tBu)A)-PPI-(Pen)+-IPD-(Dap)++-NH2 (peptide)
peptide: Adipoyl-ICSRS[tBuAla]PPI[Pen]IPD[Dap]-NH2
modifications: lactam (positions not given here); disulfide 2-10; not fully specified (bridges); also: TFA salt
B3: Example 64: (Ahx)**-((N-Me)G)-IC+SRS-((tBu)A)-PPI-(Pen)+-I** (peptide)
peptide: cyclo([Ahx][Sar]ICSRS[tBuAla]PPI[Pen]I)
modifications: disulfide 4-12; also: TFA salt
B4: Example 68: (Ahx)**-(4-(Aminomethyl)benzoic acid)-IC+SRS-((tBu)A)-PPI-(Pen)+-IP** (peptide)
peptide: cyclo([Ahx][4Amb]ICSRS[tBuAla]PPI[Pen]IP)
modifications: disulfide 4-12; also: TFA salt
B5: Example 72: (Ahx)**-AIC+SRS-((tBu)A)-PPI-(Pen)+-I** (peptide)
peptide: cyclo([Ahx]AICSRS[tBuAla]PPI[Pen]I)
modifications: disulfide 4-12; also: TFA salt
B6: Example 75: (Ahx)**-IC+SRSLP-(Oic)-I-(Pen)+-IPE++-NH2 (peptide)
peptide: [Ahx]ICSRSLP[Oic]I[Pen]IPE-NH2
modifications: disulfide 3-11; lactam N-14; also: TFA salt
B7: Example 89: (Dap)**-(Dap)-IC+SRSLP-(Oic)-I-(Pen)+-IP** (peptide)
peptide: cyclo([Dap][Dap]ICSRSLP[Oic]I[Pen]IP)
modifications: disulfide 4-12; also: TFA salt
B8: Example 92: A**GGIC+SRSLP-(Oic)-I-(Pen)+-IPD** (peptide)
peptide: cyclo(AGGICSRSLP[Oic]I[Pen]IPD)
modifications: disulfide 5-13; also: TFA salt
B9: Example 93: E++GIC+SRSLP-(Oic)-I-(Pen)+-IPD-(Dap)++-NH2 (peptide)
peptide: EGICSRSLP[Oic]I[Pen]IPD[Dap]-NH2
modifications: lactam 1-16; disulfide 4-12; also: TFA salt
B10: Example 98: A**GGIC+SRSLP-(Oic)-I-(Pen)+-IPd** (peptide)
peptide: cyclo(AGGICSRSLP[Oic]I[Pen]IP[dD])
modifications: disulfide 5-13; also: TFA salt
B11: Example 28: (Ahx)**-GIC+SRS-((tBu)A)-PPI-(Pen)+-IPD** (peptide)
peptide: cyclo([Ahx]GICSRS[tBuAla]PPI[Pen]IPD)
modifications: disulfide 4-12; also: TFA salt
B12: Example 35: (Gamma-Abu)**-IC+SRS-((tBu)A)-PPI-(Pen)+-IPD** (peptide)
peptide: cyclo([GABA]ICSRS[tBuAla]PPI[Pen]IPD)
modifications: disulfide 3-11; also: TFA salt
B13: Example 39: A**GGIC+SRS-((tBu)A)-PPI-(Pen)+-IPd** (peptide)
peptide: cyclo(AGGICSRS[tBuAla]PPI[Pen]IP[dD])
modifications: disulfide 5-13; also: TFA salt
B14: Example 52: (Ahx)**-IC+SRS-((tBu)A)-PPI-(Pen)+-I** (peptide)
peptide: cyclo([Ahx]ICSRS[tBuAla]PPI[Pen]I)
modifications: disulfide 3-11; also: TFA salt
B15: Example 53: (Ahx)**-AIC+SRS-((tBu)A)-PPI-(Pen)+-IP** (peptide)
peptide: cyclo([Ahx]AICSRS[tBuAla]PPI[Pen]IP)
modifications: disulfide 4-12; also: TFA salt
B16: Example 38: (Ahx)**-(Abu)-IC+SRS-((tBu)A)-PPI-(Pen)+-IPD** (peptide)
peptide: cyclo([Ahx][Abu]ICSRS[tBuAla]PPI[Pen]IPD)
modifications: disulfide 4-12; also: TFA salt
B17: Example 41: A**GAIC+SRSLP-(Oic)-I-(Pen)+-IPD++-NH2 (peptide)
peptide: AGAICSRSLP[Oic]I[Pen]IPD-NH2
modifications: disulfide 5-13; lactam N-16; also: TFA salt
B18: Example 42: A**GGIC+SRSLP-(Oic)-I-(Pen)+-IPD++-NH2 (peptide)
peptide: AGGICSRSLP[Oic]I[Pen]IPD-NH2
modifications: disulfide 5-13; lactam N-16; also: TFA salt
B19: Example 43: (Ahx)**AIC+SRSLP-(Oic)-I-(Pen)+-IPD++-NH2 (peptide)
peptide: [Ahx]AICSRSLP[Oic]I[Pen]IPD-NH2
modifications: disulfide 4-12; lactam N-15; also: TFA salt
B20: Example 44: (Orn)++-AIC+SRS-((tBu)A)-PPI-((N-Me)C)+-IPD++-NH2 (peptide)
peptide: [Orn]AICSRS[tBuAla]PPI[NMeC]IPD-NH2
modifications: lactam 1-15; disulfide 4-12; also: TFA salt
B21: Example 45: (Ahx)**-AIC+SRSLPPIC+IPD** (peptide)
peptide: cyclo([Ahx]AICSRSLPPICIPD)
modifications: disulfide 4-12; also: TFA salt
B22: Example 46: (Ahx)**-AIC+SRS-((tBu)A)-PPIC+IPD** (peptide)
peptide: cyclo([Ahx]AICSRS[tBuAla]PPICIPD)
modifications: disulfide 4-12; also: TFA salt
B23: Example 48: (Ahx)**-GIC+SRS-((tBu)A)-PPI-(Pen)+-IPD++-NH2 (peptide)
peptide: [Ahx]GICSRS[tBuAla]PPI[Pen]IPD-NH2
modifications: disulfide 4-12; lactam N-15; also: TFA salt
B24: Example 13: (Ahx)**-GIC+SRSLPPIC+IPD** (peptide)
peptide: cyclo([Ahx]GICSRSLPPICIPD)
modifications: disulfide 4-12; also: TFA salt
B25: Example 49: (Ahx)**-GIC+SRSLP-(Oic)-I-(Pen)+-IPD++-NH2 (peptide)
peptide: [Ahx]GICSRSLP[Oic]I[Pen]IPD-NH2
modifications: disulfide 4-12; lactam N-15; also: TFA salt
B26: Example 50: C++AIC+SRS-((tBu)A)-PPI-(Pen)+-IPDC++-NH2 (peptide)
peptide: CAICSRS[tBuAla]PPI[Pen]IPDC-NH2
modifications: disulfide 1-16, 4-12; also: TFA salt
B27: Example 51: (Ahx)**-IC+SRS-((tBu)A)-PPI-(Pen)+-IP** (peptide)
peptide: cyclo([Ahx]ICSRS[tBuAla]PPI[Pen]IP)
modifications: disulfide 3-11; also: TFA salt
B28: Example 55: (Dap)**-IC+SRS-((tBu)A)-PPI-(Pen)+-IP** (peptide)
peptide: cyclo([Dap]ICSRS[tBuAla]PPI[Pen]IP)
modifications: disulfide 3-11; also: TFA salt
B29: Example 56: (Dab)**-IC+SRS-((tBu)A)-PPI-(Pen)+-IP** (peptide)
peptide: cyclo([Dab]ICSRS[tBuAla]PPI[Pen]IP)
modifications: disulfide 3-11; also: TFA salt
B30: Example 57: (Dap)**-(Dap)-IC+SRS-((tBu)A)-PPI-(Pen)+-I** (peptide)
peptide: cyclo([Dap][Dap]ICSRS[tBuAla]PPI[Pen]I)
modifications: disulfide 4-12; also: TFA salt

The binders below were run against T1, recombinant rat MASP1 (amino acids …) (assay: cell-based or functional assay).

Binder	rat MASP1 IC50
B1	48.6 nM
B2	330 nM
B3	157 nM
B4	30.8 nM
B5	85 nM
B6	27 nM
B7	290 nM
B8	170 nM
B9	410 nM
B10	170 nM
B11	79 nM
B12	63 nM
B13	44 nM
B14	79 nM
B15	96 nM

What follows are binders tested against recombinant rat MASP2 (amino acids 296-685, C-terminal His Tag) (rat, UniProt Q9JJS8 296-685) (assay: cell-based or functional assay).
Sequence of recombinant rat MASP2 (amino acids 296-685, C-terminal His Tag) (Q9JJS8 other isoform, or with tags, fused parts or gaps limits assumed): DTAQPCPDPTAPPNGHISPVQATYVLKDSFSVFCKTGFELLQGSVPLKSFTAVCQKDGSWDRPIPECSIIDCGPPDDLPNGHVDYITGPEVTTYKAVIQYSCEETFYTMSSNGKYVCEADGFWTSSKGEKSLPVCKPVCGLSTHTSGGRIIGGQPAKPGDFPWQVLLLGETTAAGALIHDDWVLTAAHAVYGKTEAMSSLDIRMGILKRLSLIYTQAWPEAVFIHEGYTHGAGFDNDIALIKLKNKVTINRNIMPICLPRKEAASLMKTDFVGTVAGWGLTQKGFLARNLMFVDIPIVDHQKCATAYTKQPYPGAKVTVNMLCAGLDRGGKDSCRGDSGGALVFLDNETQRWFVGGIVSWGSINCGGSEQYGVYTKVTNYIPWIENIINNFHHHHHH

Binder	rat MASP2 IC50
B2	13 nM
B3	13 nM
B4	2.97 nM
B5	14 nM
B6	1.4 nM
B7	64 nM
B8	41 nM
B9	68 nM
B11	16 nM
B12	24 nM
B13	8 nM
B14	11.6 nM
B15	19 nM

What follows are binders tested against recombinant human MASP2 (amino acids 297-686, C-terminal His Tag) (human, UniProt O00187 297-686) (assay: cell-based or functional assay).
Sequence of recombinant human MASP2 (amino acids 297-686, C-terminal His Tag) (O00187 other isoform, or with tags, fused parts or gaps limits assumed): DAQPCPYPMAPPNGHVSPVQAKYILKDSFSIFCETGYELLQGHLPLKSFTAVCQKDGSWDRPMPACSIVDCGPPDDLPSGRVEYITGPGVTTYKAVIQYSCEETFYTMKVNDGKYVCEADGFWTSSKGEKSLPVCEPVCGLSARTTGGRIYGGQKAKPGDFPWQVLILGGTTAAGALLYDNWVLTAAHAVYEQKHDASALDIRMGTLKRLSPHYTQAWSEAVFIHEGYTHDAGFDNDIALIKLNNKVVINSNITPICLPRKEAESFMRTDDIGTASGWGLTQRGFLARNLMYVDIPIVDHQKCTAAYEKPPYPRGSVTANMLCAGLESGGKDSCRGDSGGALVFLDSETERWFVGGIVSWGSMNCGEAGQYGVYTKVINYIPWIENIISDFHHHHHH

Binder	human MASP2 IC50
B1	5.7 nM
B2	5.4 nM
B3	12 nM
B4	2.57 nM
B5	48 nM
B6	14 nM
B7	91 nM
B8	77 nM
B9	45 nM
B10	160 nM
B11	29 nM
B13	75 nM
B14	9.3 nM
B15	83.5 nM
B16	44 nM
B17	190 nM
B18	200 nM
B19	120 nM
B20	230 nM
B21	74 nM
B22	89 nM
B23	70 nM
B24	130 nM
B25	140 nM
B26	210 nM
B27	17 nM
B28	900 nM
B29	1100 nM
B30	340 nM

What follows are binders tested against T2, recombinant human MASP1 (amino acids …) (assay: cell-based or functional assay).

Binder	human MASP1 IC50
B1	11 nM
B2	58 nM
B3	9.4 nM
B4	6.1 nM
B5	6.3 nM
B6	7.2 nM
B7	5.7 nM
B8	8.4 nM
B9	35 nM
B10	19 nM
B11	19 nM
B12	4.1 nM
B13	6 nM
B14	7.9 nM
B15	6.75 nM
B16	20 nM
B17	5.9 nM
B18	13 nM
B19	6.7 nM
B20	4.7 nM
B21	92 nM
B22	56 nM
B23	10 nM
B24	140 nM
B25	19 nM
B26	13 nM
B27	6.3 nM
B28	46 nM
B29	86 nM
B30	46 nM
